This note sets out measurements from patent US20150166647A1 (VLST, published 2015).

In one assay the target is T1, human PARC/CCL18 (human, UniProt P55774 21-89).
T1 sequence: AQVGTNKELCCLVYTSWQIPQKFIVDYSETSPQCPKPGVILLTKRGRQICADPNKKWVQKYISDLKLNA
As to the kind of experiment: MSD electrochemiluminescence assay; chemokine coated at 1 µg/mL, 3C12F at 3 µg/mL; background = BSA.

The target in another assay is T2, human HCC-1/CCL14/CCL14a (human, UniProt Q16627 28-93).
T2 sequence: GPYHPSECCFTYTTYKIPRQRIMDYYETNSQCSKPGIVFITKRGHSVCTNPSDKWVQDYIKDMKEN
Described as above.

The next assay addresses T3, human HCC-2/MIP-1δ/CCL15 (human, UniProt Q16663 46-113).
T3 sequence: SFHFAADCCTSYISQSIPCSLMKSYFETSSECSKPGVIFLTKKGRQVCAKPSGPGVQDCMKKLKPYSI
Described as above.

The target of another assay is T4, IL-8.
T4 construct: also called IL-8/CXCL8; CXCL8
T4 sequence (chemokine, as listed by the source): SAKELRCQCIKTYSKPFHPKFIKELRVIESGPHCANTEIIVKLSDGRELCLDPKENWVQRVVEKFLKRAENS
The assay is described as above.

Another assay deals with T5, MCP-4.
T5 construct: also called MCP-4/CCL13; CCL13
T5 sequence (chemokine, as listed by the source): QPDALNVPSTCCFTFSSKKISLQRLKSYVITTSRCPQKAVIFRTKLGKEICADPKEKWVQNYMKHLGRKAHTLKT
Described as above.

The target of a further assay is T6, SDF.
T6 construct: also called SDF-1/CXCL12; CXCL12
T6 sequence (chemokine, as listed by the source): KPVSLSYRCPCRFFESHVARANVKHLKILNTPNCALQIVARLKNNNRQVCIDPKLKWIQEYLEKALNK
Described as above.

The target in a further assay is T7, I-309.
T7 construct: also called I-309/CCL1; CCL1
T7 chemokine: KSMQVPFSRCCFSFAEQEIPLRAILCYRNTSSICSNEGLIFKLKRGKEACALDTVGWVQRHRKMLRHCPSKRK
Described as above.

The target of assay [1] is T8, human MCP-1/CCL2 (human, UniProt P13500 24-99).
T8 construct: also called Biotin-MCP1
T8 sequence (P13500 24-99 limits assumed): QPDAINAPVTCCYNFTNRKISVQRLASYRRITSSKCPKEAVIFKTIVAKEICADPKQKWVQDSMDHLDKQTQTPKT
The description is as above.

The next assay has as its target T9, MDC.
T9 construct: also called MDC/CCL22; CCL22
T9 chemokine: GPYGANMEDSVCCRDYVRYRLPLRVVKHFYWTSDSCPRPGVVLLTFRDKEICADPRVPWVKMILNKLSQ
The assay is described as above.

A further assay deals with T10, ELC.
T10 construct: also called ELC/MIP-3β/CCL19; CCL19
T10 chemokine: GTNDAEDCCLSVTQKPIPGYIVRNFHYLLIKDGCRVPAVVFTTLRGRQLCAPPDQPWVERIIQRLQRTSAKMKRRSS
Described as above.

For another assay, the target named is T11, HCC-4.
T11 construct: also called HCC-4/CCL16; CCL16
T11 chemokine: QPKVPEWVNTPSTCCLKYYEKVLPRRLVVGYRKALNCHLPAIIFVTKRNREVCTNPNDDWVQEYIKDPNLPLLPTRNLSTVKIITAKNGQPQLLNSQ
Described as above.

For a further assay, the target named is T12, MCP-3.
T12 construct: also called MCP-3/CCL7; CCL7
T12 sequence (chemokine, as listed by the source): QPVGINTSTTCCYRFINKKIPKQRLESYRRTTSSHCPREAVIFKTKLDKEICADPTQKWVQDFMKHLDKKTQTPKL
The description is as above.

The next assay deals with T13, human MPIF-1/CCL23 (human, UniProt P55773 46-120).
T13 sequence: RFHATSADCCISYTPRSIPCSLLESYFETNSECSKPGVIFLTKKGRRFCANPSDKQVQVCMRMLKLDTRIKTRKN
Described as above.

In assay [2] the target is T14, human MIP-1α/CCL3 (human, UniProt P10147 24-92).
T14 construct: also called Biotin-MIP-1α
T14 sequence: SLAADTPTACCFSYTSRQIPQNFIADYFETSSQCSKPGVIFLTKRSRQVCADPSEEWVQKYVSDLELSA
As to the kind of experiment: ELISA, hybridoma fusion-well supernatant on coated MIP-1α; background approx. 0.150.

For a further assay, the target named is T15, mouse RANTES/CCL5 (mouse, UniProt P30882 24-91).
T15 construct: also called muRANTES
T15 sequence (P30882 24-91 limits assumed): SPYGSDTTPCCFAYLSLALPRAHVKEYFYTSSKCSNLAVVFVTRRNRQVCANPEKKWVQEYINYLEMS
As to the kind of experiment: MSD electrochemiluminescence, chemokine coated at 1 µg/mL.

A further assay concerns the target T16, mouse MIP-1β/CCL4 (mouse, UniProt P14097 24-92).
T16 construct: also called muMIP-1β
T16 sequence: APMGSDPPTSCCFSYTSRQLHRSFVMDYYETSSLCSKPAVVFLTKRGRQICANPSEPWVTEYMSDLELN
Described as above.

The target of a further assay is T17, mouse MIP-1α/CCL3 (mouse, UniProt P10855 24-92).
T17 construct: also called muMIP-1α
T17 sequence: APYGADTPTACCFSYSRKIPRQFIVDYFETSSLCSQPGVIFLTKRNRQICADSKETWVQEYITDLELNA
The description is as above.

For assay [3], the target named is T14, human MIP-1α/CCL3. Put plainly: BIAcore (SPR). Background: Surface plasmon resonance follows binding to a sensor surface in real time, without labels.
For assay [4], the target named is T18, human RANTES/CCL5 (human, UniProt P13501 24-91).
T18 construct: also called Biotin-RANTES
T18 sequence: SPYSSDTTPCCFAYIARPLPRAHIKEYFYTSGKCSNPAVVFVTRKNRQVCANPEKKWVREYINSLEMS
Put plainly: ELISA, hybridoma fusion-well supernatant on biotinylated chemokine on streptavidin plate; background approx. 0.150. On the technique in general: In an ELISA, binding on a coated surface is turned into a signal by an enzyme label.

For a further assay, the target named is T19, human MIP-1β/CCL4 (human, UniProt Q8NHW4 24-92).
T19 construct: also called Biotin-MIP-1β
T19 chain: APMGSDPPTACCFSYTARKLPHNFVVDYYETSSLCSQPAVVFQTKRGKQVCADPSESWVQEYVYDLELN
The assay is described as above.

Assay [5] concerns the target T8, human MCP-1/CCL2. Described as above.
For assay [6], the target named is T14, human MIP-1α/CCL3. As to the kind of experiment: cell-based or functional assay.
Assay [7] addresses T18, human RANTES/CCL5. As to the kind of experiment: cell-based or functional assay.

B1: monoclonal antibody 3C12F (antibody, V domains shown)
VH: EVQLQQSGAELVKPGASVKLSCTASGFNIKDTYIHWVKQRPEQGLEWIGRIDPANGNTQYDPKFQGKATITADTSSNTAYLQLTSLTSEDTAVYYCARRWDYDYAMDYWGQGTSVTVSS
VL: DIQMTQSPASLSASVGETVTITCRGSGNIHNYLAWYQQKQGKSPQLLVYNAKTLADGVPSRFSGSGSGTQYSLKINSLQPEDFGSYYCQHFWSTPYTFGGGTKLEIK
notes: also called MAb 3C12F
With B1, the binding result in the assay with human PARC/CCL18 is “no binding (tested: 3 µg/mL)”; with human HCC-1/CCL14/CCL14a, “no binding (tested: 3 µg/mL)”; in the assay with human HCC-2/MIP-1δ/CCL15 it was “binds”; with IL-8, “no binding (tested: 3 µg/mL)”; with MCP-4, “no binding (tested: 3 µg/mL)”; with SDF, “no binding (tested: 3 µg/mL)”. Further, the binding result with I-309, with human MCP-1/CCL2 [1], with MDC, with ELC, with HCC-4 and in the assay with MCP-3 was “no binding (tested: 3 µg/mL)” throughout. Also, the binding result with human MPIF-1/CCL23 is listed as “binds”; in the assay with mouse RANTES/CCL5, “no binding (tested: 3 µg/mL)”; with mouse MIP-1β/CCL4, “no binding (tested: 3 µg/mL)”; in the assay with mouse MIP-1α/CCL3 it was “no binding (tested: 3 µg/mL)”. Further, the ELISA signal was 1.84 in the assay with human MIP-1α/CCL3 [2], 2.61 with human RANTES/CCL5 [4], 1.92 in the assay with human MIP-1β/CCL4 and 0.189 with human MCP-1/CCL2 [5]. Moreover, binding in the assay with human MIP-1α/CCL3 [3] was characterised by a dissociation constant (Kd) of 49 nM. Further, the “IC50 of inhibition of chemotaxis (5 ng/mL chemokine)” value with human MIP-1α/CCL3 [6] and with human RANTES/CCL5 [7] was 3 to 5 µg/mL in each case.
